Data reported in article doi:10.1101/2021.10.12.464104 (bioRxiv, 2021).

Target: mCer-α1 (human Na+/K+-ATPase α1 subunit fused to the C-terminus of mCerulean) (human, UniProt P05023 1-1023)
Experiment: FRET or BRET

B1: PLM-YFP (human phospholemman fused to the N-terminus of YFP) (natural protein)
chain: ESPKEHDPFTYDYQSLQIGGLVIAGILFILGILIVLSRRCRCKFNQQQRTGEPDEEEGTFRSSIRRLSTRRR
stoichiometry N: > 1
